Data reported in patent publication US6824972 (BAYLOR COLLEGE OF MEDICINE, dated 2004).

Target: T1, NF-κB relA subunit (human, UniProt Q04206 1-551)
T1 construct: also called re1A; p65
Experiment: EMSA with supershift (antisera to p50 and relA), nuclear extracts of TNF-stimulated normal and patient G embryonic fibroblasts, 32P-labelled MHC-1 probe

T1 sequence (Q04206 whole entry): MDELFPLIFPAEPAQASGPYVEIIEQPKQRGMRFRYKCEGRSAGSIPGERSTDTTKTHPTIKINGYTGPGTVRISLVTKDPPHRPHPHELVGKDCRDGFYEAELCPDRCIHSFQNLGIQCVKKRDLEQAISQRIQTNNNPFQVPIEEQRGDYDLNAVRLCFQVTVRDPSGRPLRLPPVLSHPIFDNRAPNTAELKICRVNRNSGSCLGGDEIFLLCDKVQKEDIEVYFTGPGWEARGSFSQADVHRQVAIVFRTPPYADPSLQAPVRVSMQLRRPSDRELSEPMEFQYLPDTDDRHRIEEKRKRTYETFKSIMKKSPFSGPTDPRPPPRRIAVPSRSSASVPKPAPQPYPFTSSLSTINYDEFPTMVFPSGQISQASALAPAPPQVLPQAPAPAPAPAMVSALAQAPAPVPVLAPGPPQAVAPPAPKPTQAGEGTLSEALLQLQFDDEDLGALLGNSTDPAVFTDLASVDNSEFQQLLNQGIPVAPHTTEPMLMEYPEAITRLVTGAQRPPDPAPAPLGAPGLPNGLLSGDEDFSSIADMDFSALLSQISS

B1: NF-κB p50 subunit (other, human, UniProt P19838 1-433, looked up)
chain: MAEDDPYLGRPEQMFHLDPSLTHTIFNPEVFQPQMALPTDGPYLQILEQPKQRGFRFRYVCEGPSHGGLPGASSEKNKKSYPQVKICNYVGPAKVIVQLVTNGKNIHLHAHSLVGKHCEDGICTVTAGPKDMVVGFANLGILHVTKKKVFETLEARMTEACIRGYNPGLLVHPDLAYLQAEGGGDRQLGDREKELIRQAALQQTKEMDLSVVRLMFTAFLPDSTGSFTRRLEPVVSDAIYDSKAPNASNLKIVRMDRTAGCVTGGEEIYLLCDKVQKDDIQIRFYEEEENGGVWEGFGDFSPTDVHRQFAIVFKTPKYKDINITKPASVFVQLRRKSDLETSEPKPFLYYPEIKDKEEVQRKRQKLMPNFSDSFGGGSGAGAGGGGMFGSGGGGGGTGSTGPGYSFPHYGFPTYGGITFHPGTTKSNAGMKHG
- binding result: binds
